Reference: publication PMC5614878
pKd: −log10 of the molar value.

Tests used:
[1] = target: HIV-1 reverse transcriptase p66 p66 (Human immunodeficiency virus 1) (UniProt O93215); details: cited from earlier work
[2] = target: p51 (polymerase domain of HIV-1 reverse transcriptase) (HIV-1) (UniProt P03366); assay: NMR

HIV-1 reverse transcriptase p66 p66 (from UniProt O93215)
pKd [1]: 5.40

p51 (polymerase domain of HIV-1 reverse transcriptase) (from UniProt P03366 600-1025) (domain or fragment)
percent dimeric [2]: 80%
stoichiometry N [2]: 2
